Laboratory results taken from patent US7238491, “Pregnane X receptor method” (SmithKline Beecham Corporation).

Key:
hRXR = hRXR (Homo sapiens, UniProt P19793 P19793:1-462); test: EMSA; RXR alone without PXR; conditions: tags: none; TNT rabbit reticulocyte lysate; label: 32P (probe)
Method: (§1) Band Shift Assays hPXR, mPXR1, and hRXR were synthesized in vitro using the TNT rabbit reticulocyte lysate coupled in vitro transcription/translation system (Promega) according to the manufacturer's instructions. Gel mobility shift assays (20 µl) contained 10 mM Tris (pH 8.0), 40 mM KCl, 0.05% NP-40, 6% glycerol, 1 mM DTT, 0.2 µg of poly(dI-dC) and 2.5 µl each of in vitro synthesized PXR and RXR proteins. Competitor oligonucleotides were included at a 10-fold or 50-fold excess. After a 10 min incubation on ice, 10 ng of [^32P]-labeled oligonucleotide was added and the incubation continued for an additional 10 min. DNA-protein complexes were resolved on a 4% polyacrylamide gel in 0.5×TBE (1×TBE=90 mM Tris, 90 mM boric acid, 2 mM EDTA). Gels were dried and subjected to autoradiography at –70° C. The following oligonucleotides were used as either radiolabeled probes or competitors (sense strand is shown):
(§2) In order to determine whether hPXR interacted directly with the CYP3A4 IR6 response element, band shift assays were performed.

mPXR1/hRXR heterodimer [1] = target: T1, mPXR1/hRXR heterodimer (Mus musculus / Homo sapiens, UniProt O54915;P19793 O54915:1-431,P19793:1-462); test: EMSA; same binding profile as hPXR/RXR; conditions: tags: none; TNT rabbit reticulocyte lysate; label: 32P (probe)
Method: as §1, §2

[2] = target: T2, hPXR/hRXR heterodimer (RXR isoform not stated) (Homo sapiens, UniProt O75469;P19793 O75469:1-434,P19793:1-462); test: EMSA; 10 mM Tris pH 8.0, 40 mM KCl, 0.05% NP-40, 6% glycerol, 1 mM DTT, poly(dI-dC), on ice; self-competed by unlabeled IR6; conditions: tags: none; TNT rabbit reticulocyte lysate; label: 32P (probe)
Method: as §1, §2

[3] = target: T2, hPXR/hRXR heterodimer (RXR isoform not …); test: competition; efficient competitor of IR6 probe at 10- or 50-fold excess in EMSA; conditions: tags: none; TNT rabbit reticulocyte lysate
Method: as §1, §2

mPXR1/hRXR heterodimer [4] = target: T1, mPXR1/hRXR heterodimer; test: competition; same profile as hPXR/RXR; competes with IR6 probe; conditions: tags: none; TNT rabbit reticulocyte lysate
Method: as §1, §2

mPXR1/hRXR heterodimer [5] = target: T1, mPXR1/hRXR heterodimer; test: competition; same profile as hPXR/RXR; little or no competition; conditions: tags: none; TNT rabbit reticulocyte lysate
Method: as §1, §2

[6] = target: T2, hPXR/hRXR heterodimer (RXR isoform not …); test: competition; little or no competition at 10- or 50-fold excess in EMSA; conditions: tags: none; TNT rabbit reticulocyte lysate
Method: as §1, §2

T1 sequence (O54915 whole entry, chain 1 of 2): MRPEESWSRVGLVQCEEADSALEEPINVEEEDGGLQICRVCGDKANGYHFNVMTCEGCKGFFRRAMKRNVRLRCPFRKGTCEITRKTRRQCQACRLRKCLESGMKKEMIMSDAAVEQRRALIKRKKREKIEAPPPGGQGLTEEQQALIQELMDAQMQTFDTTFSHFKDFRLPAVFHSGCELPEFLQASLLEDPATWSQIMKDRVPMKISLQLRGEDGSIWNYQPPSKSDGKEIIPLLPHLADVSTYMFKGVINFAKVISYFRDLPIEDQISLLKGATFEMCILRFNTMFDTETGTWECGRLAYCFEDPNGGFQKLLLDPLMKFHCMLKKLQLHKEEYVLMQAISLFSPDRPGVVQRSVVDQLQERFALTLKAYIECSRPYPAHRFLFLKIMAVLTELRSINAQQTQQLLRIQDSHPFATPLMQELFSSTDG
T1 sequence (P19793 whole entry, chain 2 of 2): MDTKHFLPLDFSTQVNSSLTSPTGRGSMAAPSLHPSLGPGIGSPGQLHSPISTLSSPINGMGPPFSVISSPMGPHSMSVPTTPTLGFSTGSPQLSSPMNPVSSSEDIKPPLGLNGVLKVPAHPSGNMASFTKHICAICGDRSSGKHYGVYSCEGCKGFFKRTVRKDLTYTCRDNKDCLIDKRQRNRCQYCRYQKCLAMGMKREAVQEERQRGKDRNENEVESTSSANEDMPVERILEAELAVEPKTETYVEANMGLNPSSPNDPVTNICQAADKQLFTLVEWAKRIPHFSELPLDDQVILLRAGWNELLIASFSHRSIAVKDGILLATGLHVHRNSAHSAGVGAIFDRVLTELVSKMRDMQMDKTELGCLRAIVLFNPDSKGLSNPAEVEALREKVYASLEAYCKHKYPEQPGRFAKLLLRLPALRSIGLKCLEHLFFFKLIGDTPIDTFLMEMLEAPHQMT
T2 sequence (O75469 whole entry, chain 1 of 2, canonical isoform): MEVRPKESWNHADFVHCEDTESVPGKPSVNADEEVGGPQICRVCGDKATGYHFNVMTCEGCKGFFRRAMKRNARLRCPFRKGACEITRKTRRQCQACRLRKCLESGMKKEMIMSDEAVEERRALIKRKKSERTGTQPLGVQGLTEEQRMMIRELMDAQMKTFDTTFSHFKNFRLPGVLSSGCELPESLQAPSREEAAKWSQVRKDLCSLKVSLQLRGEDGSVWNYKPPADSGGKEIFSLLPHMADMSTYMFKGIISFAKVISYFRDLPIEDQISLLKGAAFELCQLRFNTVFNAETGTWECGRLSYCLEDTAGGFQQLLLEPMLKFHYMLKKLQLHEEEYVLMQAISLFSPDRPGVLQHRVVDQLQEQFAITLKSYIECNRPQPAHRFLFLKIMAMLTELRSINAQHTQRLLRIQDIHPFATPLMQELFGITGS
T2 sequence (P19793 whole entry, chain 2 of 2, canonical isoform): as the sequence (P19793 whole entry, chain 2 of 2) above
Chain of hRXR (P19793 whole entry, one chain of several): as the sequence (P19793 whole entry, chain 2 of 2) above

B1: CYP3A4 IR6 PXRE (dsDNA)
DNA 1: GATCAATATGAACTCAAAGGAGGTCAGTG
DNA 2: CACTGACCTCCTTTGAGTTCATATTGATC
hRXR
  binding result: no binding
mPXR1/hRXR heterodimer [1]
  binding result: binds
[2]
  binding result: binds

B2: CYP3A1 DR3 PXRE (dsDNA)
DNA 1: GATGCAGACAGTTCATGAAGTTCATCTAGATC
DNA 2: GATCTAGATGAACTTCATGAACTGTCTGCATC
[3]
  binding result: binds
mPXR1/hRXR heterodimer [4]
  binding result: binds

B3: CYP3A4 IR6 m1 (dsDNA)
DNA 1: GATCAATATGTTCTCAAAGGAGAACAGTG
DNA 2: CACTGTTCTCCTTTGAGAACATATTGATC
mPXR1/hRXR heterodimer [5]
  binding result: no binding
[6]
  binding result: no binding

B4: CYP3A4 IR6 m2 (dsDNA)
DNA 1: GATCAATAACAACTCAAAGGAGGTCAGTG
DNA 2: CACTGACCTCCTTTGAGTTGTTATTGATC
mPXR1/hRXR heterodimer [5]
  binding result: no binding
[6]
  binding result: no binding
